± gives the uncertainty stated by the source.
B1: Cytoplasmic polyadenylation element-binding protein 2, residues 513 to 575; numbered along this chain, Q7Z5Q1 (parent)
chain: KRVEVKPYVLDDQMCDECQGARCGGKFAPFFCANVTCLQYYCEFCWANIHSRAGREFHKPLVK

Variants of: B1
Assay: abundance fitness (aPCA) (normalised: wild type 0, dead -1); higher = more abundant; growth selection in yeast, the domain comes from the species named
Details: Homo sapiens
With KRVEVKPYVLDDQMCDECQGARCGGKFAPFFCANVTCLQYYCEACWANIHSRAGREFHKPLVK the abundance fitness was 0.05 ± 0.043.
KRVEVKPYVLDDQMCDECQGARCGGKFAPFFCANVTCLQYYCENCWANIHSRAGREFHKPLVK showed an abundance fitness of -0.056 ± 0.055.
With KRVEVKPYVLDDQMCDECQGARCGGKFAPFFCANVTCLQYYCETCWANIHSRAGREFHKPLVK the abundance fitness was 0.003 ± 0.048.
KRVEVKPYVLDDQMCDECQGARCGGKFAPFFCANVTCLQYYCEKCWANIHSRAGREFHKPLVK gave an abundance fitness of -0.046 ± 0.058.
Work on KRVEVKPYVLDDQMCDECQGARCGGKFAPFFCANVTCLQYYCECCWANIHSRAGREFHKPLVK yielded an abundance fitness of 0.053 ± 0.063.
KRVEVKPYVLDDQMCDECQGARCGGKFAPFFCANVTCLQYYCEQCWANIHSRAGREFHKPLVK gave an abundance fitness of 0.124 ± 0.061.
KRVEVKPYVLDDQMCDECQGARCGGKFAPFFCANVTCLQYYCEPCWANIHSRAGREFHKPLVK gave an abundance fitness of 0.082 ± 0.048.
In the case of KRVEVKPYVLDDQMCDECQGARCGGKFAPFFCANVTCLQYYCEMCWANIHSRAGREFHKPLVK, the abundance fitness is reported as -0.145 ± 0.057.
KRVEVKPYVLDDQMCDECQGARCGGKFAPFFCANVTCLQYYCEDCWANIHSRAGREFHKPLVK showed an abundance fitness of -0.109 ± 0.1.
With KRVEVKPYVLDDQMCDECQGARCGGKFAPFFCANVTCLQYYCESCWANIHSRAGREFHKPLVK the abundance fitness was -0.012 ± 0.038.
KRVEVKPYVLDDQMCDECQGARCGGKFAPFFCANVTCLQYYCERCWANIHSRAGREFHKPLVK gave an abundance fitness of -0.038 ± 0.032.
Work on KRVEVKPYVLDDQMCDECQGARCGGKFAPFFCANVTCLQYYCEGCWANIHSRAGREFHKPLVK yielded an abundance fitness of 0.015 ± 0.039.
KRVEVKPYVLDDQMCDECQGARCGGKFAPFFCANVTCLQYYCEVCWANIHSRAGREFHKPLVK gave an abundance fitness of 0.044 ± 0.046.
For KRVEVKPYVLDDQMCDECQGARCGGKFAPFFCANVTCLQYYCEECWANIHSRAGREFHKPLVK, the abundance fitness was 0.033 ± 0.048.
Work on KRVEVKPYVLDDQMCDECQGARCGGKFAPFFCANVTCLQYYCEWCWANIHSRAGREFHKPLVK yielded an abundance fitness of -0.067 ± 0.043.
KRVEVKPYVLDDQMCDECQGARCGGKFAPFFCANVTCLQYYCEYCWANIHSRAGREFHKPLVK gave an abundance fitness of 0.059 ± 0.096.
Variant KRVEVKPYVLDDQMCDECQGARCGGKFAPFFCANVTCLQYYCELCWANIHSRAGREFHKPLVK has an abundance fitness of 0.007 ± 0.038.
Variant KRVEVKPYVLDDQMCDECQGARCGGKFAPFFCANVTCLQYYREFCWANIHSRAGREFHKPLVK has an abundance fitness of -1 ± 0.091.
For KRVEVKPYVLDDQMCDECQGARCGGKFAPFFCANVTCLQYYLEFCWANIHSRAGREFHKPLVK, the abundance fitness was -1.03 ± 0.075.
Work on KRVEVKPYVLDDQMCDECQGARCGGKFAPFFCANVTCLQYYYEFCWANIHSRAGREFHKPLVK yielded an abundance fitness of -0.869 ± 0.094.
KRVEVKPYVLDDQMCDECQGARCGGKFAPFFCANVTCLQYYVEFCWANIHSRAGREFHKPLVK showed an abundance fitness of -0.849 ± 0.11.
KRVEVKPYVLDDQMCDECQGARCGGKFAPFFCANVTCLQYYPEFCWANIHSRAGREFHKPLVK showed an abundance fitness of -0.826 ± 0.08.
Variant KRVEVKPYVLDDQMCDECQGARCGGKFAPFFCANVTCLQYYMEFCWANIHSRAGREFHKPLVK has an abundance fitness of -1.22 ± 0.24.
Work on KRVEVKPYVLDDQMCDECQGARCGGKFAPFFCANVTCLQYYTEFCWANIHSRAGREFHKPLVK yielded an abundance fitness of -1.11 ± 0.093.
Work on KRVEVKPYVLDDQMCDECQGARCGGKFAPFFCANVTCLQYYQEFCWANIHSRAGREFHKPLVK yielded an abundance fitness of -1.21 ± 0.22.
For KRVEVKPYVLDDQMCDECQGARCGGKFAPFFCANVTCLQYYHEFCWANIHSRAGREFHKPLVK, the abundance fitness was -0.818 ± 0.068.
KRVEVKPYVLDDQMCDECQGARCGGKFAPFFCANVTCLQYYWEFCWANIHSRAGREFHKPLVK gave an abundance fitness of -1.29 ± 0.44.
KRVEVKPYVLDDQMCDECQGARCGGKFAPFFCANVTCLQYYCNFCWANIHSRAGREFHKPLVK showed an abundance fitness of -0.05 ± 0.071.
For KRVEVKPYVLDDQMCDECQGARCGGKFAPFFCANVTCLQYYCMFCWANIHSRAGREFHKPLVK, the abundance fitness was -0.309 ± 0.05.
For KRVEVKPYVLDDQMCDECQGARCGGKFAPFFCANVTCLQYYCHFCWANIHSRAGREFHKPLVK, the abundance fitness was -0.079 ± 0.084.
For KRVEVKPYVLDDQMCDECQGARCGGKFAPFFCANVTCLQYYCGFCWANIHSRAGREFHKPLVK, the abundance fitness was -0.179 ± 0.047.
KRVEVKPYVLDDQMCDECQGARCGGKFAPFFCANVTCLQYYCYFCWANIHSRAGREFHKPLVK gave an abundance fitness of -0.146 ± 0.058.
In the case of KRVEVKPYVLDDQMCDECQGARCGGKFAPFFCANVTCLQYYCDFCWANIHSRAGREFHKPLVK, the abundance fitness is reported as -0.049 ± 0.083.
KRVEVKPYVLDDQMCDECQGARCGGKFAPFFCANVTCLQYYCKFCWANIHSRAGREFHKPLVK gave an abundance fitness of -0.161 ± 0.064.
In the case of KRVEVKPYVLDDQMCDECQGARCGGKFAPFFCANVTCLQYYCAFCWANIHSRAGREFHKPLVK, the abundance fitness is reported as -0.3 ± 0.067.
KRVEVKPYVLDDQMCDECQGARCGGKFAPFFCANVTCLQYYCLFCWANIHSRAGREFHKPLVK showed an abundance fitness of -0.395 ± 0.044.
KRVEVKPYVLDDQMCDECQGARCGGKFAPFFCANVTCLQYYCQFCWANIHSRAGREFHKPLVK gave an abundance fitness of -0.11 ± 0.057.
KRVEVKPYVLDDQMCDECQGARCGGKFAPFFCANVTCLQYYCFFCWANIHSRAGREFHKPLVK gave an abundance fitness of -0.298 ± 0.052.
Variant KRVEVKPYVLDDQMCDECQGARCGGKFAPFFCANVTCLQYYCTFCWANIHSRAGREFHKPLVK has an abundance fitness of -0.149 ± 0.06.
KRVEVKPYVLDDQMCDECQGARCGGKFAPFFCANVTCLQYYCWFCWANIHSRAGREFHKPLVK gave an abundance fitness of -0.136 ± 0.051.
In the case of KRVEVKPYVLDDQMCDECQGARCGGKFAPFFCANVTCLQYYCSFCWANIHSRAGREFHKPLVK, the abundance fitness is reported as 0.018 ± 0.04.
Work on KRVEVKPYVLDDQMCDECQGARCGGKFAPFFCANVTCLQYYCCFCWANIHSRAGREFHKPLVK yielded an abundance fitness of -0.25 ± 0.051.
